Test results taken from article PMC9200632 (2022).

Biological target: T1, MBP–FlaA (C. jejuni flagellin FlaA, amino acids 177–482) (C. jejuni, biotinylated (EZ-Link NGS-PEG4-Biotin kit) in the BLI)
T1 chain: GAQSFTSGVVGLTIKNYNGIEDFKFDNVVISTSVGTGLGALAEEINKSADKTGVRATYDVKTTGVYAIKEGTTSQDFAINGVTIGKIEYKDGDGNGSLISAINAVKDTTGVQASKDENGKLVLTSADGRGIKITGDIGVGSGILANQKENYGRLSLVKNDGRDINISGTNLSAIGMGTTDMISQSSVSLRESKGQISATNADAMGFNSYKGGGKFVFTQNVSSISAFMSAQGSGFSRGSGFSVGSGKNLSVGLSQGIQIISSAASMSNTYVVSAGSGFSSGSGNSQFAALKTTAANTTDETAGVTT
Assay: BLI

B1: aa682 (VHH)
VHH: QVQLVESGGGLVQAGGSLRVSCTASVSTFSINALGWYRQAPGKARELVAAIGSDGTVYYTDSVKGRFTISRDNAKNTVSLQMSSLKPEDTAVYYCNAAGKRIGSDGSIWFAVASFGSWGQGTQVTVSS
koff: 0.024 s⁻¹
